Biological target: T7-tagged tyrosine kinase Etk (UniProt P51813)
Sequence (P51813 whole entry): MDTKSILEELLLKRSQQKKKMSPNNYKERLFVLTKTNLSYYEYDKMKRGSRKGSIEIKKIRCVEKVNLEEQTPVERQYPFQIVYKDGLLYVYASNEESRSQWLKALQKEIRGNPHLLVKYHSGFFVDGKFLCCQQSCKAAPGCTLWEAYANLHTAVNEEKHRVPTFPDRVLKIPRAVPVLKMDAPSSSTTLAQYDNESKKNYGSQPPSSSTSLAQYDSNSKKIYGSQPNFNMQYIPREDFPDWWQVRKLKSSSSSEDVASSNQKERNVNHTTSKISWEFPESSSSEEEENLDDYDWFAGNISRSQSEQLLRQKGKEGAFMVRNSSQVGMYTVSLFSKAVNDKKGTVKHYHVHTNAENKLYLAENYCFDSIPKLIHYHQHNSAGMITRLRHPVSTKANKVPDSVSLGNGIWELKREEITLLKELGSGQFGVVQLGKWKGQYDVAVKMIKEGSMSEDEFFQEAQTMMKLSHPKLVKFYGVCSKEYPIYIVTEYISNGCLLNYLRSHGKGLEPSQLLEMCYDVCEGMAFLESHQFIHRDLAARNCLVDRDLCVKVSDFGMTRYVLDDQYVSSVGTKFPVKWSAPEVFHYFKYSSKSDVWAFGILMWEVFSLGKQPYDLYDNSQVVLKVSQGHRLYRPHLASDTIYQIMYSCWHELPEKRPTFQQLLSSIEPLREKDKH

Flag-tagged human 44 kD Pim-1 (Pim-1L), sequence (chain, as listed by the source): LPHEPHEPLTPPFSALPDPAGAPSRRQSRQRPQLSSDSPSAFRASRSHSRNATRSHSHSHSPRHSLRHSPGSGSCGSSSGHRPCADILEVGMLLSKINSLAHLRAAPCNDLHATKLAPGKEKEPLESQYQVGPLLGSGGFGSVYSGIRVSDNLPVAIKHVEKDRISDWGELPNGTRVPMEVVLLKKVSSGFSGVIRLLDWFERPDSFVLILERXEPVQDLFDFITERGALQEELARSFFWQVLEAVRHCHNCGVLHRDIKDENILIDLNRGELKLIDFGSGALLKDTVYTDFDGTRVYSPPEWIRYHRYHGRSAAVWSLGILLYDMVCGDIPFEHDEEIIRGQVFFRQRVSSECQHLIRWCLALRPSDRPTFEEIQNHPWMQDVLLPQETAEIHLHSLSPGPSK
Flag-tagged Pim-1LΔP (Pim-1L with the first 15 amino acids deleted), sequence (chain, as listed by the source mutant): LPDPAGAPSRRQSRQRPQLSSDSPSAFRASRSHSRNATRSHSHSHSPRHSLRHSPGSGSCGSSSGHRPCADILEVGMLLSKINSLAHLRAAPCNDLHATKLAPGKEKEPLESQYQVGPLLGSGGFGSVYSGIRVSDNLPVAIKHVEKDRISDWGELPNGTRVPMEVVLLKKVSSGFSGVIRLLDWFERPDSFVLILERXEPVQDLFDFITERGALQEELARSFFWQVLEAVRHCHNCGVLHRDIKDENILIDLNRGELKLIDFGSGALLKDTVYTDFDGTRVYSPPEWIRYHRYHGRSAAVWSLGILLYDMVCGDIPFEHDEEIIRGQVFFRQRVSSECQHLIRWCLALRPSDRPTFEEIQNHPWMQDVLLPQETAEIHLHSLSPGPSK

Question: How did the “in vitro kinase assay of Etk (tyrosine phosphorylation of the substrate Gab1)” value turn out when “Flag-tagged Pim-1LΔP (Pim-1L with the first 15 amino acids deleted)” was run?
Answer: Deletion of the proline-rich PXXP motifs of Pim-1L (Pim-1LΔP) dramatically diminished its effects on the Etk kinase activity

Question: Flag-tagged human 44 kD Pim-1 (Pim-1L) was tested. Which “in vitro kinase assay of Etk (tyrosine phosphorylation of the substrate Gab1)” value did it give?
Answer: Co-expression of Etk with Pim-1L enhanced the kinase activity of Etk

Question: And the “tyrosine phosphorylation of Etk (IP anti-Etk, blot anti-phosphotyrosine)” value?
Answer: unexpected robust increase of tyrosine phosphorylation of Etk
